Columns and labels:
[1] = pH 10, 20° C., within 24 hours
Method: (§1) Experiments were performed to determine the fate of the irinotecan-containing PEG species in 4-arm-PEG-Gly-Irino-20K under transesterification (K2CO3 in CH3OH, 20° C.) and aqueous hydrolysis (pH 10, 20° C.) conditions.

[2] = K2CO3 in CH3OH, 20° C., after 45 minutes
Method: as §1

[3] = Stress stability studies of 4-arm-PEG-Gly-Irino-20K (Example 3); assay type: physicochemical; settings: summary of stress stability studies
Method: The product formed in Example 1, 4-arm-PEG-Gly-Irino-20K, compound 5, (approximately 1-2 g) was weighed into PEG PE ‘whirl top’ bags and placed into another ‘whirl top’ bag in order to simulate the API packaging conditions. In one study (results shown in FIG. 1), samples were placed in an environmental chamber at 25° C./60% RH for 4 weeks. In another study, samples were placed in an environmental chamber at 40° C./75% RH for up to several months (results shown in FIG. 2 and FIG. 3). Samples were taken and analyzed on a periodic basis over the course of the studies.

## pentaerythritolyl-4-arm-(PEG-1-methylene-2-oxo-vinylamino acetate linked-irinotecan) [4-arm-PEG-Gly-Irino-20K]
[1]
  aqueous hydrolysis reaction, completion: > 99%
[2]
  transesterification reaction, completion: > 99%
[3]
  overall stability compared with free base and hydrochloride salt: greater stability than either the free base or hydrochloride salt
